Data taken from article PMC6811539, “Minute-scale persistence of a GPCR conformation state triggered by non-cognate G protein interactions primes signaling” (Nature Communications, 2019).

Biological target: β2-AR of the β2-AR-Sp SPASM sensor (human) (UniProt P07550)

For Sp (Gαs C terminus peptide), the critical concentration (CC) of unlabeled peptide for enhanced isoproterenol-stimulated ΔFRET of the β2-AR-Sp sensor in native membranes (peptide 100 nM to 100 μM) was 1.5 µM.
